The results in this text go back to US20130227716A1 (University of Washington, published 2013).

The target in experiment [1] is COI1/ASK1 complex (full-length Arabidopsis thaliana COI1 co-expressed with ASK1) (Arabidopsis thaliana) (UniProt Q39255). Nature of the experiment: cell-based or functional assay.
In experiment [2] the target is T1, COI1/ASK1 complex (full-length Arabidopsis thaliana COI1 co-expressed with ASK1) (Arabidopsis thaliana, UniProt Q39255 1-160).
T1 construct: mature; Purified from Hi5 insect cells; co-purifies with Ins(1,2,4,5,6)P5 cofactor; also called COI/ASK1; untreated COI1
T1 sequence 1: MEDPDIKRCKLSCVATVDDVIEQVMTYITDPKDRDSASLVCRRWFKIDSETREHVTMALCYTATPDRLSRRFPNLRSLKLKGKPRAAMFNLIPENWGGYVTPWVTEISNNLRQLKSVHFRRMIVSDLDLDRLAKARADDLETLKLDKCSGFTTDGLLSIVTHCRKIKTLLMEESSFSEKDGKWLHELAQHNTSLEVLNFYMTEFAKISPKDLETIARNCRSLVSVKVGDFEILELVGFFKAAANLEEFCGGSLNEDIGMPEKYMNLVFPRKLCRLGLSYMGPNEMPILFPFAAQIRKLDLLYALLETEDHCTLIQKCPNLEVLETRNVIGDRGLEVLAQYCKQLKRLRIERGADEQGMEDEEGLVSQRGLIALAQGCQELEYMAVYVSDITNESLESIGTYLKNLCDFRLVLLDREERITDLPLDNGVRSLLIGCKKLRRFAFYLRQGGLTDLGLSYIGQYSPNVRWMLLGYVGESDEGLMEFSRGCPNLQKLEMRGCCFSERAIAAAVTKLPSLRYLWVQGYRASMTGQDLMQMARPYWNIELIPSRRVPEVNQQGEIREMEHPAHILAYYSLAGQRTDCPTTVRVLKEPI
T1 sequence 2: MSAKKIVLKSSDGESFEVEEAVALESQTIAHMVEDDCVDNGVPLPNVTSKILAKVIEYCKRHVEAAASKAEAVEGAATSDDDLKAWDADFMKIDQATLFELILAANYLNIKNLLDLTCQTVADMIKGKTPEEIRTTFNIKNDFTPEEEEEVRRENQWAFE
Nature of the experiment: 3H-coronatine radioligand binding with COI1/ASK1 and synthetic peptide.

For experiment [3], the target named is T1, COI1/ASK1 complex (full-length …). Nature of the experiment: saturation radioligand binding (3H-coronatine) with COI1/ASK1 and the synthetic peptide.
Experiment [4] deals with T2, Arabidopsis thaliana COI1 (Arabidopsis thaliana, UniProt O04197 1-592).
T2 construct: also called wild-type COI1
T2 sequence: T1 sequence 1
Nature of the experiment: crystal structure.

Experiment [5] deals with T1, COI1/ASK1 complex (full-length …). Nature of the experiment: cell-based or functional assay.

In the case of “full-length JAZ6 (from UniProt Q9C9E3 1-269)”, in experiment [1], the KD of 3H-coronatine saturation binding to COI1/ASK1 in the presence of JAZ6 came out at 48 nM and the KD of 3H-coronatine saturation binding to the COI1/JAZ6 complex was 68 nM.

B1: JAZ7 + 5 extension (peptide)
peptide: YQKASMKRSLHSFLQKRSLRI
As for B1, the binding result in experiment [2] was “no binding”.

B2: JAZ6 + 10 extension (peptide)
peptide: QQHQVVERIARRASLHRFFAKRKDRV
For the molecule B2, in experiment [2], the binding result was “no binding”.

B3: JAZ1 + polyA extension (peptide)
peptide: AAAAARRASLHRFLEKRKDRV
On to B3, for which the binding result in experiment [2] was “no binding”.

B4: JAZ1 + 4 extension (peptide)
peptide: LPIARRASLHRFLEKRKDRV
With B4, the binding result in experiment [2] is “binds”.

B5: JAZ1 + 5 extension (peptide)
peptide: ELPIARRASLHRFLEKRKDRV
notes: also called JAZ1 +5 extension peptide; JAZ1 degron +5 peptide
The term Kd denotes the free concentration of one partner at which half of the binding sites on the other are occupied at equilibrium, for simple one-to-one binding. High values mean a looser complex, low ones a tighter complex. In turn, B5 registered a Kd in experiment [3] of 108 nM.

B6: ASK1 (other, Arabidopsis thaliana, UniProt Q39255 1-160, looked up)
chain: T1 sequence 2
notes: mature
For B6, the binding result in experiment [4] was “binds”.

B7: JAZ1 + 6 extension + PY motif (peptide)
peptide: ELPIARRASLHRFLEKRKDRVTSKAPY
notes: also called JAZ1-extension +5+PY; JAZ1 +5 extension with the six C-terminal residues added back on
Consider B7, for which the binding result in experiment [2] is listed as “binds”.

B8: JAZ1 + 5 extension from JAZ6 (peptide)
peptide: VERIARRASLHRFLEKRKDRV
With B8, in experiment [2], the binding result is listed as “no binding”.

B9: JAZ6 + 5 extension (peptide)
peptide: VERIARRASLHRFFAKRKDRV
Consider B9, for which the binding result in experiment [2] was “no binding”.

B10: full-length JAZ1 (other)
chain: MSSSMECSEFVGSRRFTGKKPSFSQTCSRLSQYLKENGSFGDLSLGMACKPDVNGTLGNSRQPTTTMSLFPCEASNMDSMVQDVKPTNLFPRQPSFSSSSSSLPKEDVLKMTQTTRSVKPESQTAPLTIFYAGQVIVFNDFSAEKAKEVINLASKGTANSLAKNQTDIRSNIATIANQVPHPRKTTTQEPIQSSPTPLTELPIARRASLHRFLEKRKDRVTSKAPYQLCDPAKASSNPQTTGNMSWLGLAAEI
As to B10, in experiment [5], the “KD of 3H-coronatine saturation binding to COI1/ASK1 in the presence of JAZ1” value was determined as 68 nM and the “KD of 3H-coronatine saturation binding to the COI1/JAZ1 complex” value worked out at 48 nM.
